Tested on: Escherichia coli TOP10
Experiment: shrunken log2 fold change of peptide-encoding DNA abundance (4.5 h post-induction vs induction); higher = less antimicrobial activity (less host growth inhibition)
Conditions: time post-induction: 4.5 h; library: site-saturation at positions 5, 18, 19, 20
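Also: peptides expressed intracellularly from a pBAD plasmid library in pooled LB shake-flask culture, induced with 0.3% L-arabinose, DNA abundance read by NGS, three biological replicates, DESeq2 with apeglm shrinkage.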

Row | Sequence | shrunken log2 fold change
1 | RRIRMRPPRLPRPRPRPSPSPRP | 0.588
2 | RRIRRRPPRLPRPRPRPDVFPRP | 0.06
3 | RRIRHRPPRLPRPRPRPMESPRP | 0.00489
4 | RRIRVRPPRLPRPRPRPQDGPRP | -0.00098
5 | RRIRIRPPRLPRPRPRPLVCPRP | -0.346
6 | RRIRLRPPRLPRPRPRPQKWPRP | 2.37
7 | RRIRTRPPRLPRPRPRPLLIPRP | -0.0383
8 | RRIRDRPPRLPRPRPRPYYWPRP | -0.184
9 | RRIRSRPPRLPRPRPRPSHLPRP | -0.265
10 | RRIRERPPRLPRPRPRPNEEPRP | 0.00699
11 | RRIRRRPPRLPRPRPRPEAMPRP | -0.0491
12 | RRIRDRPPRLPRPRPRPYWSPRP | -0.503
13 | RRIRCRPPRLPRPRPRPQLHPRP | -0.213
14 | RRIRKRPPRLPRPRPRPETYPRP | -0.00198
15 | RRIRERPPRLPRPRPRPMKCPRP | 0.00911
16 | RRIRRRPPRLPRPRPRPNWQPRP | 0.00842
17 | RRIRTRPPRLPRPRPRPPHIPRP | -0.471
18 | RRIRHRPPRLPRPRPRPVAMPRP | -0.123
19 | RRIRTRPPRLPRPRPRPKYPPRP | -0.252
20 | RRIRPRPPRLPRPRPRPIQMPRP | -0.166
21 | RRIRVRPPRLPRPRPRPFIIPRP | -0.442
22 | RRIRGRPPRLPRPRPRPSTEPRP | 1.14
23 | RRIRARPPRLPRPRPRPMPCPRP | 0.535
24 | RRIRCRPPRLPRPRPRPVEDPRP | -0.0221
25 | RRIRGRPPRLPRPRPRPCLYPRP | 0.0217

Row | Sequence | shrunken log2 fold change
26 | RRIRVRPPRLPRPRPRPNEFPRP | -0.00739
27 | RRIRSRPPRLPRPRPRPFSDPRP | -0.126
28 | RRIRARPPRLPRPRPRPATTPRP | 0.681
29 | RRIRMRPPRLPRPRPRPSSQPRP | 0.212
30 | RRIRSRPPRLPRPRPRPYSEPRP | -0.561
31 | RRIRPRPPRLPRPRPRPQNSPRP | -0.469
32 | RRIRRRPPRLPRPRPRPHQYPRP | 2.56
33 | RRIRWRPPRLPRPRPRPTKKPRP | 0.0726
34 | RRIRCRPPRLPRPRPRPLWSPRP | -0.233
35 | RRIRERPPRLPRPRPRPLWHPRP | -0.0827
36 | RRIRDRPPRLPRPRPRPATNPRP | 0.0922
37 | RRIRRRPPRLPRPRPRPNWAPRP | 0.164
38 | RRIRYRPPRLPRPRPRPTWDPRP | 0.114
39 | RRIRLRPPRLPRPRPRPVWHPRP | -0.047
40 | RRIRIRPPRLPRPRPRPWLAPRP | -0.12
41 | RRIRIRPPRLPRPRPRPMFQPRP | 0.0263
42 | RRIRNRPPRLPRPRPRPWCYPRP | -0.428
43 | RRIRKRPPRLPRPRPRPDMVPRP | -0.00254
44 | RRIRYRPPRLPRPRPRPLQAPRP | -0.057
45 | RRIRKRPPRLPRPRPRPASQPRP | 0.0905
46 | RRIRCRPPRLPRPRPRPDAHPRP | -0.0835
47 | RRIRQRPPRLPRPRPRPQLPPRP | -0.23
48 | RRIRTRPPRLPRPRPRPGNLPRP | 0.021
49 | RRIRLRPPRLPRPRPRPSEGPRP | -0.501
50 | RRIRFRPPRLPRPRPRPTKQPRP | 0.0621

Row | Sequence | shrunken log2 fold change
51 | RRIRCRPPRLPRPRPRPRFEPRP | 0.115
52 | RRIRIRPPRLPRPRPRPLSEPRP | -0.0382
53 | RRIRHRPPRLPRPRPRPGVQPRP | 0.00489
54 | RRIRYRPPRLPRPRPRPECSPRP | -0.15
55 | RRIRMRPPRLPRPRPRPGFNPRP | -0.106
56 | RRIRGRPPRLPRPRPRPDDSPRP | 0.121
57 | RRIRLRPPRLPRPRPRPMEKPRP | 0.0493
58 | RRIRARPPRLPRPRPRPLLMPRP | 0.384
59 | RRIRKRPPRLPRPRPRPAMDPRP | 0.231
60 | RRIRNRPPRLPRPRPRPNDRPRP | -0.218
61 | RRIRRRPPRLPRPRPRPIVTPRP | 0.0446
62 | RRIRKRPPRLPRPRPRPLANPRP | 0.029
63 | RRIRYRPPRLPRPRPRPKVWPRP | 0.221
64 | RRIRIRPPRLPRPRPRPRQQPRP | 0.0393
65 | RRIRVRPPRLPRPRPRPDIWPRP | 0.0543
66 | RRIRMRPPRLPRPRPRPTTVPRP | 0.376
67 | RRIRCRPPRLPRPRPRPMYTPRP | -0.551
68 | RRIRARPPRLPRPRPRPTKHPRP | 0.217
69 | RRIRSRPPRLPRPRPRPSRLPRP | -0.0299
70 | RRIRARPPRLPRPRPRPYMHPRP | -0.361
71 | RRIRIRPPRLPRPRPRPATSPRP | -0.273
72 | RRIRKRPPRLPRPRPRPDNAPRP | 0.05
73 | RRIRQRPPRLPRPRPRPWMCPRP | 0.00702
74 | RRIRIRPPRLPRPRPRPIEWPRP | -0.123
75 | RRIRLRPPRLPRPRPRPIHDPRP | -0.302

Row | Sequence | shrunken log2 fold change
76 | RRIRVRPPRLPRPRPRPIFKPRP | -0.0901
77 | RRIRCRPPRLPRPRPRPESRPRP | 0.276
78 | RRIRSRPPRLPRPRPRPLYGPRP | -0.565
79 | RRIRDRPPRLPRPRPRPCTIPRP | -0.23
80 | RRIRWRPPRLPRPRPRPPHRPRP | 0.321
81 | RRIRTRPPRLPRPRPRPEWGPRP | 0.249
82 | RRIRSRPPRLPRPRPRPSSLPRP | -0.255
83 | RRIRSRPPRLPRPRPRPHLTPRP | -0.0599
84 | RRIRWRPPRLPRPRPRPLPLPRP | 0.477
85 | RRIRQRPPRLPRPRPRPQWCPRP | 0.142
86 | RRIRIRPPRLPRPRPRPDMMPRP | 0.0293
87 | RRIRIRPPRLPRPRPRPVHIPRP | -0.155
88 | RRIRGRPPRLPRPRPRPSSLPRP | -0.252
89 | RRIRDRPPRLPRPRPRPANKPRP | -0.261
90 | RRIRMRPPRLPRPRPRPRHLPRP | -0.0764
91 | RRIRLRPPRLPRPRPRPPQFPRP | -0.165
92 | RRIRWRPPRLPRPRPRPEYKPRP | 0.472
93 | RRIRFRPPRLPRPRPRPFSTPRP | -0.0736
94 | RRIRARPPRLPRPRPRPENLPRP | 0.0156
95 | RRIRERPPRLPRPRPRPHVMPRP | -0.957
96 | RRIRRRPPRLPRPRPRPDLNPRP | 0.16
97 | RRIRDRPPRLPRPRPRPFQNPRP | 0.0838
98 | RRIRRRPPRLPRPRPRPWRGPRP | 0.215
99 | RRIRDRPPRLPRPRPRPPNKPRP | 0.0523
100 | RRIRNRPPRLPRPRPRPTLFPRP | 0.0912

Row | Sequence | shrunken log2 fold change
101 | RRIRRRPPRLPRPRPRPNCNPRP | -0.0828
102 | RRIRMRPPRLPRPRPRPTDHPRP | 0.309
103 | RRIRCRPPRLPRPRPRPKYTPRP | -0.511
104 | RRIRVRPPRLPRPRPRPMLAPRP | 0.446
105 | RRIRERPPRLPRPRPRPVQFPRP | -0.0474
106 | RRIRWRPPRLPRPRPRPNARPRP | 0.0903
107 | RRIRKRPPRLPRPRPRPRMWPRP | 0.377
108 | RRIRARPPRLPRPRPRPWDYPRP | 0.00145
109 | RRIRVRPPRLPRPRPRPQNCPRP | -0.205
110 | RRIRNRPPRLPRPRPRPSMDPRP | 0.00334
111 | RRIRERPPRLPRPRPRPREIPRP | 0.214
112 | RRIRRRPPRLPRPRPRPSKVPRP | -0.0758
113 | RRIRSRPPRLPRPRPRPTVEPRP | 0.119
114 | RRIRTRPPRLPRPRPRPPHDPRP | 0.275
115 | RRIRCRPPRLPRPRPRPVTGPRP | -0.0982
116 | RRIRSRPPRLPRPRPRPSVNPRP | -0.119
117 | RRIRQRPPRLPRPRPRPSMLPRP | -0.522
118 | RRIRIRPPRLPRPRPRPVWEPRP | 0.108
119 | RRIRIRPPRLPRPRPRPHMVPRP | -0.181
120 | RRIRLRPPRLPRPRPRPWQYPRP | -0.0471
121 | RRIRHRPPRLPRPRPRPLQKPRP | 0.104
122 | RRIRHRPPRLPRPRPRPKWSPRP | 0.0617
123 | RRIRHRPPRLPRPRPRPIVKPRP | -0.19
124 | RRIRNRPPRLPRPRPRPEFMPRP | 0.0662
125 | RRIRGRPPRLPRPRPRPWAAPRP | 0.539

Row | Sequence | shrunken log2 fold change
126 | RRIRARPPRLPRPRPRPLGIPRP | -0.12
127 | RRIRIRPPRLPRPRPRPGWQPRP | 0.449
128 | RRIRGRPPRLPRPRPRPDHTPRP | 0.0269
129 | RRIRRRPPRLPRPRPRPKMWPRP | 0.216
130 | RRIRERPPRLPRPRPRPHHEPRP | -0.191
131 | RRIRARPPRLPRPRPRPGFKPRP | -0.02
132 | RRIRIRPPRLPRPRPRPFNCPRP | -0.0819
133 | RRIRARPPRLPRPRPRPRGFPRP | 0.604
134 | RRIRMRPPRLPRPRPRPMILPRP | -0.0491
135 | RRIRFRPPRLPRPRPRPCDQPRP | -0.0178
136 | RRIRQRPPRLPRPRPRPKCGPRP | 0.354
137 | RRIRGRPPRLPRPRPRPGVYPRP | 0.0589
138 | RRIRHRPPRLPRPRPRPSPHPRP | -0.39
139 | RRIRARPPRLPRPRPRPSMNPRP | -0.032
140 | RRIRPRPPRLPRPRPRPYHMPRP | -0.316
141 | RRIRSRPPRLPRPRPRPYKQPRP | -0.62
142 | RRIRTRPPRLPRPRPRPEWLPRP | 0.203
143 | RRIRYRPPRLPRPRPRPFDHPRP | -0.0332
144 | RRIRCRPPRLPRPRPRPLLFPRP | -0.277
145 | RRIRFRPPRLPRPRPRPICQPRP | -0.182
146 | RRIRCRPPRLPRPRPRPCDIPRP | -0.0278
147 | RRIRQRPPRLPRPRPRPSVMPRP | -0.283
148 | RRIRMRPPRLPRPRPRPLIDPRP | 0.356
149 | RRIRWRPPRLPRPRPRPGDAPRP | 0.418
150 | RRIRWRPPRLPRPRPRPDASPRP | 0.364

Reference: the supplement of paper PMC9112550, “Optimization of the antimicrobial peptide Bac7 by deep mutational scanning” (BMC Biology, 2022)
